Article PMC5297931

Target: Haemophilus surface fibril (Hsf) putative domain 1 (PD1) (H. influenzae)
Test: SEC-MALLS; Superdex 200 5/150, buffer C (50 mM Tris, 150 mM NaCl pH 8.0), 0.2 ml/min; LS, dRI and UV detectors; IMAC- and SEC-purified HsfPD1

Haemophilus surface fibril (Hsf) putative domain 1 (PD1) (domain or fragment)
stoichiometry N: 3
